The values below come from PMC6277709, “Lipid-Modified Azurin of Neisseria gonorrhoeae Is Not Surface Exposed and Does Not Interact With the Nitrite Reductase AniA” (Frontiers in Microbiology, 2018).

The data set deals with the molecule itself. Kind of data set: cross-linking; in vivo: intact living N. gonorrhoeae (WT or Δlaz, grown under standard aerobic conditions) in PBS with 0, 0.1, 0.25 or 0.4 mM DSP, 37°C, 5% CO2, 30 min; quenched with 50 mM Tris-HCl pH 8.0; SDS-PAGE without reducing agent at 4°C; immunoblot with anti-BamA, anti-AniA or anti-Laz antiserum. (In western blotting, separated proteins are transferred to a membrane and probed.)

B1: Nitrite reductase AniA of Neisseria gonorrhoeae FA1090, endogenous in living gonococci (enzyme)
chain: CGGEQAAQAPAETPAASAEAASSAAQATAETPAGELPVIDAVTTHAPEVPPAIDRDYPAKVRVKMETVEKTMKMDDGVEYRYWTFDGDVPGRMIRVREGDTVEVEFSNNPSSTVPHNVDFHAATGQGGGAAATFTAPGRTSTFSFKALQPGLYIYHCAVAPVGMHIANGMYGLILVEPKEGLPKVDKEFYIVQGDFYTKGKKGAQGLQPFDMDKAVAEQPEYVVFNGHVGSIAGDNALKAKAGETVRMYVGNGGPNLVSSFHVIGEIFDKVYVEGGKLINENVQSTIVPAGGSAIVEFKVDIPGSYTLVDHSIFRAFNKGALGQLKVEGAENPEIMTQKLSDTAYAGSGAASAPAASAPAASAPAASASEKSVY
notes: source: endogenous, living N. gonorrhoeae FA1090 (WT and Δlaz) cells
By stoichiometry N is commonly meant a count of units in the complex or per binding partner. For B1, the “stoichiometry N” value was 3.
